Test: yeast display, Sf9 membrane polyspecificity reagent, FACS + sequencing; frameworks hold sequencing errors
Summary of the method: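 Synthetic nanobody libraries on Saccharomyces cerevisiae BJ5465 were galactose-induced for 36–48 hours, stained 1 hour at 4 °C with 10% biotinylated, detergent-solubilized Sf9 membrane reagent and enriched on streptavidin microbeads. FACS then separated cells into low and high (top ~1%) gates by anti-HA (expression) and streptavidin (reagent binding) fluorescence. Genes were colony-PCR amplified, MiSeq 2 × 250 sequenced and CDR-length filtered. A clone's polyreactivity label is that of its gate of origin.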

| Sequence | polyreactivity (PSR sort gate) |
| --- | --- |
| QDQLVESGGGLVQAGGSLSLSCAASGRTFYWYVMGWYRQAPGKERELVAAITQTGSSSYYADSVKGRFTISRDNAKNTVYLQMNSLKPEDTAVYYCADRLSRNHYEVDYWGQGTQVTVSS | low polyreactivity |
| QDQLVESGGGLVQAGGSLSLSCAASGSIFGKYTMGWYRQAPGKERELVAGITYRAGSTYYADSVKGRFTISRDNAKITVYLQMNSLKPEDTAVYYCAARFYFRWYYYGSYANYWGQGTQVTVSS | high polyreactivity |
| QDQLVESGGGLVQAGGSRRLSCAASGSIFIYAMGWYRQAPGNERELVATIDSGGSTNYADSVKGRFTISRDNAKNTFYLQMNSLKPEDTAVYYFAARPYTTYHYVDDYWGQGTQVTVSS | high polyreactivity |
| QDQLVESGGGLVQAGGTLRLSCDASGSTFFRNAMGWYRQPPGKEREMVADISASGGSTYYADSVKGRFTISRDNAKNTVYLQMNSLKPEDNADYYCNALYIYFYNYLTMDYWGQGSQVTVSS | low polyreactivity |
| QDQLVESGGGLVQAGVSLRLSCAASGRTIRHNPMGWYIQAPGKERELVATINRGGNTYYADSVKGRFTISRDNAKNTVYLQMISLKPEDTAVYYCAARRSFLFDDGNYWGQVTQVTVSS | low polyreactivity |
| QDQLVESGGGLVQAGVSLRLSCPASGNIFNGKAMGWYRQAPGKERELVAAISSGGGSTYYADSVKGRFTISRDNAMNTVYLQMNSLKPEDTAVYYCAASRVRYSYGYPYYYWGQGTQVTVSS | high polyreactivity |
| QDQLVESGGGLVQARGSLRLSCAASGYIFPFYAMGWYRQAPGKESELVASISSSSGRTNYADSVKGRFTISRDNAMNTVYLQMNSLKPEDTAVYYCSAAYLRYVSTQYHYDYWGQGTQVTVSS | low polyreactivity |
| QDQLVESGGGLVQEGGSLRLSCAASGLIFTYYAMGWYRQAPGKERELVAAINYSGGSTYYADSVKGRFTISRDNAKNTVYLQMNSLKPEDTAVYYCDARRVTQTEGPMGYWGQGTQVTVSS | low polyreactivity |
| QDQLVESGGGLVQEGGSLRLSCAASGSIFARNAMGWYRQAPGKERELVAAISRSGGSTYYADSVKGRFTISRDNAKNTVYVQMNSMKPEDTAVYFCNAVQRYSQGDYWGHGTQVTVSS | high polyreactivity |
| QDQLVESGGGLVQPGGSLRLSCAASGRTFRFNAMGWYRQAPGKERELVAVITSNDGSTYYADSVKGRFTISRDNAKNTVYLQMNSLKPEDTAVYYCAADWSYAWSWFYYWGQGTQVTVSS | low polyreactivity |
| QDQLVESGGGLVQSGGSLRLSCAASGFIFPHYAMGWYRPAPGKERELVAAISKSGDSTYYADSVKGRFSISRDNAKNTVYLQMNSLKPEDTAVYYCARRGRSLLWKYDYWRQGTQVTVSS | low polyreactivity |
| QDQLVESGGVLVQAGGSLRLSCAASGSIFFRNAMGWYRQAPGKERELVAGIRWSGGSTYYADSVKARFTISRDNAKNTVYLQMNSLKPEDSAVYYCAASRYRPARVQYSYDYWGQGTQVTVSS | high polyreactivity |
| QDQLVESGRGLVQAGGSLRLSCAASGFIFYNYAMGWYIQAPGKERELVAAISASGGRTYFADSVQGRFTISRDNAKNTVYLQMNRLKPEDTAFYYCNARVNYKGYDYWGQGTQVTVSS | high polyreactivity |
| QDQLVESGRGLVQAGGSLRLSCAASGSINATNAMGWYRQAPGKERELVPSISYSVSRTYYADSVKGRFTISRDNAKNTVYFQMNSLTPEDTAVYYCAVRQVNWFGIGYEDDYCGQGTQVTVSS | low polyreactivity |
| QDQLVESGVGLDQAGVSLRLSCAASGRTFKGNAMGWYSQATGKESELVAVITGSGGSTYYADSVKGRFTISRDNAKNTVYLQMTSLKPEDTAVYYCNKTLQRRSWYDYWGQGTQVTVSS | low polyreactivity |
| QDQLVESGVGLVQAGGSLRLSCAASGRTYFSHTMGWYRQAPGKERQLVAAITRSGGTTYYADSVKGRFTISRDNAKNTVYLQMNSLKPEDTAVYYCAARTSYAFYYPRDYWGQGTQVTVSS | high polyreactivity |
| QDQLVESGVGLVQAGGSLRLSCAASGSTFYYYAMGWYRQAPGKERELVAAITSDGSTNYADSVKGRFTISRDNAKNTVYLQMNSLKTEDTAVYYCAKTYYWGYDWGQGTQVTVSS | low polyreactivity |

Reference: the nanobody polyreactivity screen of Harvey et al. (2022)
